Source: patent publication US20060040325A1

Experiments:
[1] = biological target: FcγRIIIA (soluble receptor used as analyte in the BIAcore runs) (human) (UniProt P08637); assay: SPR (BIAcore 3000), IgG amine-coupled to CM5, soluble FcγRIIIA injected; steady-state isotherm; Run 2
[2] = biological target: FcγRIIB-streptavidin fusion protein (tetramer) (human; Streptomyces avidinii) (UniProt P31994); assay: ELISA: antibody at varied concentration captured on protein A/G, FcγRIIB-streptavidin, biotin-HRP, OD at 450 nm
Sequence of FcγRIIB-streptavidin fusion protein (tetramer) (human; Streptomyces avidinii) (P31994 43-217 limits assumed): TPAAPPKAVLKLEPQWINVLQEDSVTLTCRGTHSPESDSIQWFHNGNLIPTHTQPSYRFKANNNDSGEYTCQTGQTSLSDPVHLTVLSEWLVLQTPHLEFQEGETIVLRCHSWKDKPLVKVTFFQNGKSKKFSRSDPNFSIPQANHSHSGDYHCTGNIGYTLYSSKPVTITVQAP

[3] = biological target: FcγRIIIA (soluble receptor used as analyte in the BIAcore runs) (human) (UniProt P08637); assay: SPR (BIAcore 3000), IgG amine-coupled to CM5, soluble FcγRIIIA injected; steady-state isotherm; Run 1
[4] = biological target: FcγRIIIA (soluble receptor used as analyte in the BIAcore runs) (human) (UniProt P08637); assay: SPR (BIAcore 3000), IgG amine-coupled to CM5, soluble FcγRIIIA injected; Scatchard plot of Req; Run 1
[5] = biological target: FcγRIIIA (soluble receptor used as analyte in the BIAcore runs) (human) (UniProt P08637); assay: SPR (BIAcore 3000), IgG amine-coupled to CM5, soluble FcγRIIIA injected; Scatchard plot of Req; Run 2

Sequence of FcγRIIIA (soluble receptor used as analyte in the BIAcore runs) (human) (P08637 17-208): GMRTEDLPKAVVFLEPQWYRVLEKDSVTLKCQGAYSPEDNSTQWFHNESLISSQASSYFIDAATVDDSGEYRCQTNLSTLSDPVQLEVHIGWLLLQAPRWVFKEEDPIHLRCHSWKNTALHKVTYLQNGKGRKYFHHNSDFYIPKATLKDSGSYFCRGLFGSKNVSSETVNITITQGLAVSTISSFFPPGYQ

Kd [1] [nM] | EC50 (read off the curve) [2] [µg/mL] | Kd [3] [nM] | Kd [4] [nM] | Kd [5] [nM] | Substance
8900 | 0.3 | 3470 | 3260 | 7600 | Vitaxin® (wild type, full length IgG1) (antibody)
1280 | 0.3 | 458 | 458 | 1220 | Vitaxin®-1M (Vitaxin® Fc variant I332E, IgG1) (antibody)
114 |  |  |  |  | Vitaxin®-3M (Vitaxin® Fc variant S239D/A330L/I332E, IgG1) (antibody)
